From patent US20240109971A1 (MONASH UNIVERSITY, published 2024)
Blank lines part the entries; values can stand above or below the binder they belong to.

Tests used:
human CCR6 [1] = target: T1, human CCR6 (human, UniProt P51684 1-374); assay: FACS binding assay on hCCR6 L1.2 cells, PE-conjugated anti-human Fc detection; 1-21/WT mutant
T1 construct: also called hCCR6; CD196
T1 sequence: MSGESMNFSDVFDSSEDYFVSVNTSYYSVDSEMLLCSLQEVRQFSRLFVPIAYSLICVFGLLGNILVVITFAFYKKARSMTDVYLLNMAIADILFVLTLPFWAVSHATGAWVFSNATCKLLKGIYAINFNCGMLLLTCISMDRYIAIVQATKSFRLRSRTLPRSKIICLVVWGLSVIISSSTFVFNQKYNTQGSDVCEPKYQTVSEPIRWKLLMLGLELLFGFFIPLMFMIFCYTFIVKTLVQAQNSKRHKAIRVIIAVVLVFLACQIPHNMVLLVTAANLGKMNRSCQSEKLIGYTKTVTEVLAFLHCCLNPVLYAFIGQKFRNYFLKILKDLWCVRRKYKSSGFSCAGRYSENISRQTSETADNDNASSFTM
Description: (§1) Binding characteristics of hAB6 and mutants hAB6-IgG1 to human CCR6 was performed using a FACS binding assay using cell line expressing human CCR6 (L1.2 human CCR6). Approximately 2.5 10⁵ hCCR6 L1.2 cells/test were washed with FACS binding buffer (FBB) (PBS, 0.5% BSA, 0.1% NaN3 (pH 7.4)), and stained with hAB6 or hAB6 mutants (4.4 μg/ml) and serial 3-fold dilutions of antibodies. After 1 h on ice, the cells were washed with FBB (pH 7.4) and with an anti-human Fc antibody PE-conjugated (Jackson ImmunoResearch). After 30 min on ice, the cells were washed 3 times with FBB (pH 7.4), and resuspended in 1% formaldehyde, and analyzed using a FACS LSR flow cytometer (BD Immunocytometry Systems). EC₅₀ values were calculated using GraphPad Prism.

human CCR6 [2] = target: T1, human CCR6; assay: FACS binding assay on hCCR6 L1.2 cells, PE-conjugated anti-human Fc detection; 1-23/3-3 mutant
Description: as §1

human CCR6 [3] = target: T1, human CCR6; assay: FACS binding assay on hCCR6 L1.2 cells, PE-conjugated anti-human Fc detection; 1-21/3-3 mutant
Description: as §1

human CCR6 [4] = target: T1, human CCR6; assay: FACS binding assay on hCCR6 L1.2 cells, PE-conjugated anti-human Fc detection; WT/3-3 mutant
Description: as §1

human CCR6 [5] = target: T1, human CCR6; assay: FACS binding assay on hCCR6 L1.2 cells, PE-conjugated anti-human Fc detection; hAB6 (WT/WT)
Description: as §1

human CCR6 [6] = target: T1, human CCR6; assay: FACS binding assay on hCCR6 L1.2 cells, PE-conjugated anti-human Fc detection; 1-23/WT mutant
Description: as §1

B1: hAB6 mutant 1-21/WT (antibody, V domains shown)
VH: EVQLVESGGGLVQPGGSLRLSCAASGFPFSDYYLYWVRQAPGKGLEWVAYITNGVGRTYYSDSVKGRFTISRDNAKNTLYLQMNSLRDEDTAVYYCTSPPLGGAWFGYWGQGTLVTVS
VL: DIVMTQSPLSLPVTPGEPASISCRSSQSIVHSNGNTYLEWYLQKPGQSPRLLIYKVSKRFSGVPDRFSGSGSGTDFTLKISRVEAEDVGVYYCFQGSHVPLTFGQGTKLEIKR
notes: IgG1 format
EC50 (human CCR6 [1]): 460 pM

B2: hAB6 mutant 1-23/3-3 (antibody, V domains shown)
VH: EVQLVESGGGLVQPGGSLRLSCVASGFPFSDYYLYWVRQAPGKGLEWVAYITNGVGRTYYSDSVKGRFTISRDNAKNTLYLQMNSLRDEDTAVYYCTSPPLGGAWFGYWGQGTLVTVS
VL: DIVMTQSPLSLPVTPGEPASISCRSSRSIVHSNGNTYLEWYLQKPGQSPRLLIYKVSKRFSGVPDRFSGSGSGTDFTLKISRVEAEDVGVYYCFQGSHVPLTFGQGTKLEIKR
notes: IgG1 format
EC50 (human CCR6 [2]): 1200 pM

B3: hAB6 mutant 1-21/3-3 (antibody, V domains shown)
VH: EVQLVESGGGLVQPGGSLRLSCAASGFPFSDYYLYWVRQAPGKGLEWVAYITNGVGRTYYSDSVKGRFTISRDNAKNTLYLQMNSLRDEDTAVYYCTSPPLGGAWFGYWGQGTLVTVS
VL: DIVMTQSPLSLPVTPGEPASISCRSSRSIVHSNGNTYLEWYLQKPGQSPRLLIYKVSKRFSGVPDRFSGSGSGTDFTLKISRVEAEDVGVYYCFQGSHVPLTFGQGTKLEIKR
notes: IgG1 format
EC50 (human CCR6 [3]): 410 pM

B6: hAB6 mutant 1-23/WT (antibody, V domains shown)
VH: EVQLVESGGGLVQPGGSLRLSCVASGFPFSDYYLYWVRQAPGKGLEWVAYITNGVGRTYYSDSVKGRFTISRDNAKNTLYLQMNSLRDEDTAVYYCTSPPLGGAWFGYWGQGTLVTVS
VL: DIVMTQSPLSLPVTPGEPASISCRSSQSIVHSNGNTYLEWYLQKPGQSPRLLIYKVSKRFSGVPDRFSGSGSGTDFTLKISRVEAEDVGVYYCFQGSHVPLTFGQGTKLEIKR
notes: IgG1 format
EC50 (human CCR6 [6]): 390 pM

The next lines start with the values.

EC50 (human CCR6 [4]): 3200 pM
B4: hAB6 mutant WT/3-3 (antibody, V domains shown)
VH: EVQLVESGGGLVQPGGSLRLSCAASGFPFSDYYLYWVRQAPGKGLEWVAYITNGVGRTYYSDSVKGRFTISRDNAKNTLYLQMNSLRDEDTAVYYCTSPPLGGAWFAYWGQGTLVTVS
VL: DIVMTQSPLSLPVTPGEPASISCRSSRSIVHSNGNTYLEWYLQKPGQSPRLLIYKVSKRFSGVPDRFSGSGSGTDFTLKISRVEAEDVGVYYCFQGSHVPLTFGQGTKLEIKR
notes: IgG1 format

EC50 (human CCR6 [5]): 3400 pM
B5: humanized AB6 mAb (antibody, V domains shown)
VH: EVQLVESGGGLVQPGGSLRLSCAASGFPFSDYYLYWVRQAPGKGLEWVAYITNGVGRTYYSDSVKGRFTISRDNAKNTLYLQMNSLRDEDTAVYYCTSPPLGGAWFAYWGQGTLVTVS
VL: DIVMTQSPLSLPVTPGEPASISCRSSQSIVHSNGNTYLEWYLQKPGQSPRLLIYKVSKRFSGVPDRFSGSGSGTDFTLKISRVEAEDVGVYYCFQGSHVPLTFGQGTKLEIKR
notes: also called hAB6; hAB6-IgG1
